The target of one assay is human GLP-1 receptor (human, UniProt P43220). Briefly: cell-based or functional assay.
The next assay has as its target human glucagon receptor (human, UniProt P47871). Briefly: cell-based or functional assay.

Starred links: 1 amine or outer side, 2 acyl side, 3 side chain; linkers in the order of their positions; H or OH if unused. Non-standard residues stand in square brackets, D forms with d. Groups on a side chain read outwards from the residue. No end group written: not given here. *: point of attachment. C20 diacid = O=C(O)CCCCCCCCCCCCCCCCCCC(=O)*; C18 diacid = O=C(O)CCCCCCCCCCCCCCCCC(=O)*; PEG8 = NCCOCCOCCOCCOCCOCCOCCOCCOCCC(=O)O; Dip = N[C@H](C(=O)O)C(c1ccccc1)c1ccccc1; γGlu = O=C(O)[C@H](CCC(=O)[*:2])N[*:1]; Stearoyl = CCCCCCCCCCCCCCCCCC(=O)*; αMeF = C[C@](N)(Cc1ccccc1)C(=O)O; (PEG)2 = polyethylene glycol 2; PEG4 = NCCOCCOCCOCCOCCC(=O)O; AEEA = NCCOCCOCC(=O)O; Aib = CC(C)(N)C(=O)O

B1: Peptide 57 (peptide)
peptide: HSQGS[αMeF]TSDVSK[Dip]LDSK([PEG8-γGlu-γGlu-Stearoyl])AAQD[αMeF]VE[Aib]IINT-NH2
modifications: N-terminus assumed
SMILES: CCCCCCCCCCCCCCCCCC(=O)N[C@@H](CCC(=O)N[C@@H](CCC(=O)NCCOCCOCCOCCOCCOCCOCCOCCOCCC(=O)NCCCC[C@H](NC(=O)[C@H](CO)NC(=O)[C@H](CC(=O)O)NC(=O)[C@H](CC(C)C)NC(=O)[C@@H](NC(=O)[C@H](CCCCN)NC(=O)[C@H](CO)NC(=O)[C@@H](NC(=O)[C@H](CC(=O)O)NC(=O)[C@H](CO)NC(=O)[C@@H](NC(=O)[C@](C)(Cc1ccccc1)NC(=O)[C@H](CO)NC(=O)CNC(=O)[C@H](CCC(N)=O)NC(=O)[C@H](CO)NC(=O)[C@@H](N)Cc1c[nH]cn1)[C@@H](C)O)C(C)C)C(c1ccccc1)c1ccccc1)C(=O)N[C@@H](C)C(=O)N[C@@H](C)C(=O)N[C@@H](CCC(N)=O)C(=O)N[C@@H](CC(=O)O)C(=O)N[C@@](C)(Cc1ccccc1)C(=O)N[C@H](C(=O)N[C@@H](CCC(=O)O)C(=O)NC(C)(C)C(=O)N[C@H](C(=O)N[C@H](C(=O)N[C@@H](CC(N)=O)C(=O)N[C@H](C(N)=O)[C@@H](C)O)[C@@H](C)CC)[C@@H](C)CC)C(C)C)C(=O)O)C(=O)O
In the case of B1, the “cAMP production, hGLP-1R EC50 (pM)” value with human GLP-1 receptor is 9.09 pM. In the assay with human glucagon receptor, the “cAMP production, hGluc-R EC50 (pM)” value is 16.9 pM.

B2: Peptide 153 (peptide)
peptide: H[Aib]QGTFTSDVSK[αMeF]LDSK([AEEA-AEEA-γGlu-C20 diacid])RAQDFVRWLL[Aib]E-OH
modifications: N-terminus assumed
SMILES: CC(C)C[C@H](NC(=O)[C@H](Cc1c[nH]c2ccccc12)NC(=O)[C@H](CCCNC(=N)N)NC(=O)[C@@H](NC(=O)[C@H](Cc1ccccc1)NC(=O)[C@H](CC(=O)O)NC(=O)[C@H](CCC(N)=O)NC(=O)[C@H](C)NC(=O)[C@H](CCCNC(=N)N)NC(=O)[C@H](CCCCNC(=O)COCCOCCNC(=O)COCCOCCNC(=O)CC[C@H](NC(=O)CCCCCCCCCCCCCCCCCCC(=O)O)C(=O)O)NC(=O)[C@H](CO)NC(=O)[C@H](CC(=O)O)NC(=O)[C@H](CC(C)C)NC(=O)[C@](C)(Cc1ccccc1)NC(=O)[C@H](CCCCN)NC(=O)[C@H](CO)NC(=O)[C@@H](NC(=O)[C@H](CC(=O)O)NC(=O)[C@H](CO)NC(=O)[C@@H](NC(=O)[C@H](Cc1ccccc1)NC(=O)[C@@H](NC(=O)CNC(=O)[C@H](CCC(N)=O)NC(=O)C(C)(C)NC(=O)[C@@H](N)Cc1c[nH]cn1)[C@@H](C)O)[C@@H](C)O)C(C)C)C(C)C)C(=O)N[C@@H](CC(C)C)C(=O)NC(C)(C)C(=O)N[C@@H](CCC(=O)O)C(=O)O
Consider B2, for which the “cAMP production, hGLP-1R EC50 (pM)” value with human GLP-1 receptor stood at 41.2 pM. Moreover, the “cAMP production, hGluc-R EC50 (pM)” value in the assay with human glucagon receptor turned out to be 99 pM.

B3: Peptide 56 (peptide)
peptide: HSQGS[αMeF]TSDVSK[Dip]LDSK([PEG4-γGlu-γGlu-Stearoyl])AAQD[αMeF]VE[Aib]IINT-NH2
modifications: N-terminus assumed
SMILES: CCCCCCCCCCCCCCCCCC(=O)N[C@@H](CCC(=O)N[C@@H](CCC(=O)NCCOCCOCCOCCOCCC(=O)NCCCC[C@H](NC(=O)[C@H](CO)NC(=O)[C@H](CC(=O)O)NC(=O)[C@H](CC(C)C)NC(=O)[C@@H](NC(=O)[C@H](CCCCN)NC(=O)[C@H](CO)NC(=O)[C@@H](NC(=O)[C@H](CC(=O)O)NC(=O)[C@H](CO)NC(=O)[C@@H](NC(=O)[C@](C)(Cc1ccccc1)NC(=O)[C@H](CO)NC(=O)CNC(=O)[C@H](CCC(N)=O)NC(=O)[C@H](CO)NC(=O)[C@@H](N)Cc1c[nH]cn1)[C@@H](C)O)C(C)C)C(c1ccccc1)c1ccccc1)C(=O)N[C@@H](C)C(=O)N[C@@H](C)C(=O)N[C@@H](CCC(N)=O)C(=O)N[C@@H](CC(=O)O)C(=O)N[C@@](C)(Cc1ccccc1)C(=O)N[C@H](C(=O)N[C@@H](CCC(=O)O)C(=O)NC(C)(C)C(=O)N[C@H](C(=O)N[C@H](C(=O)N[C@@H](CC(N)=O)C(=O)N[C@H](C(N)=O)[C@@H](C)O)[C@@H](C)CC)[C@@H](C)CC)C(C)C)C(=O)O)C(=O)O
With B3, the “cAMP production, hGLP-1R EC50 (pM)” value with human GLP-1 receptor came to 4.86 pM. Moreover, the “cAMP production, hGluc-R EC50 (pM)” value with human glucagon receptor was 10.9 pM.

B4: Peptide 152 (peptide)
peptide: H[Aib]QGTFTSDVSK[αMeF]LDSK([AEEA-AEEA-γGlu-C18 diacid])RAQDFVRWLL[Aib]E-OH
modifications: N-terminus assumed
SMILES: CC(C)C[C@H](NC(=O)[C@H](Cc1c[nH]c2ccccc12)NC(=O)[C@H](CCCNC(=N)N)NC(=O)[C@@H](NC(=O)[C@H](Cc1ccccc1)NC(=O)[C@H](CC(=O)O)NC(=O)[C@H](CCC(N)=O)NC(=O)[C@H](C)NC(=O)[C@H](CCCNC(=N)N)NC(=O)[C@H](CCCCNC(=O)COCCOCCNC(=O)COCCOCCNC(=O)CC[C@H](NC(=O)CCCCCCCCCCCCCCCCC(=O)O)C(=O)O)NC(=O)[C@H](CO)NC(=O)[C@H](CC(=O)O)NC(=O)[C@H](CC(C)C)NC(=O)[C@](C)(Cc1ccccc1)NC(=O)[C@H](CCCCN)NC(=O)[C@H](CO)NC(=O)[C@@H](NC(=O)[C@H](CC(=O)O)NC(=O)[C@H](CO)NC(=O)[C@@H](NC(=O)[C@H](Cc1ccccc1)NC(=O)[C@@H](NC(=O)CNC(=O)[C@H](CCC(N)=O)NC(=O)C(C)(C)NC(=O)[C@@H](N)Cc1c[nH]cn1)[C@@H](C)O)[C@@H](C)O)C(C)C)C(C)C)C(=O)N[C@@H](CC(C)C)C(=O)NC(C)(C)C(=O)N[C@@H](CCC(=O)O)C(=O)O
Take B4: in the assay with human GLP-1 receptor, the “cAMP production, hGLP-1R EC50 (pM)” value came out at 11.9 pM. In addition, the “cAMP production, hGluc-R EC50 (pM)” value with human glucagon receptor worked out at 20.4 pM.

Turning to HSQGS[αMeF]TSDVSK[Dip]LDSK([(PEG)2-(PEG)2-γGlu-γGlu-Stearoyl])AAQD[αMeF]VQ[Dip]LEA-NH2 [Peptide 55], the “cAMP production, hGLP-1R EC50 (pM)” value with human GLP-1 receptor came out at 18.8 pM. Besides, the “cAMP production, hGluc-R EC50 (pM)” value with human glucagon receptor worked out at 19.1 pM.

For the molecule H[Aib]QGTFTSDVSK[αMeF]LDSK([AEEA-AEEA-γGlu-C18 diacid])RARDFVRWLL[Aib]TE-OH (also: αMePhe at 23 (V)) [Peptide 166], the “cAMP production, hGLP-1R EC50 (pM)” value with human GLP-1 receptor stood at 48 pM. Further, the “cAMP production, hGluc-R EC50 (pM)” value with human glucagon receptor was determined as 270 pM.

B5: Peptide 7 (peptide)
peptide: H[Aib]HGS[αMeF]TSDVSK[αMeF]LDSK([γGlu-C18 diacid])AAQD[αMeF]VEWIANT-NH2
modifications: N-terminus assumed
SMILES: CC[C@H](C)[C@H](NC(=O)[C@H](Cc1c[nH]c2ccccc12)NC(=O)[C@H](CCC(=O)O)NC(=O)[C@@H](NC(=O)[C@](C)(Cc1ccccc1)NC(=O)[C@H](CC(=O)O)NC(=O)[C@H](CCC(N)=O)NC(=O)[C@H](C)NC(=O)[C@H](C)NC(=O)[C@H](CCCCNC(=O)CC[C@H](NC(=O)CCCCCCCCCCCCCCCCC(=O)O)C(=O)O)NC(=O)[C@H](CO)NC(=O)[C@H](CC(=O)O)NC(=O)[C@H](CC(C)C)NC(=O)[C@](C)(Cc1ccccc1)NC(=O)[C@H](CCCCN)NC(=O)[C@H](CO)NC(=O)[C@@H](NC(=O)[C@H](CC(=O)O)NC(=O)[C@H](CO)NC(=O)[C@@H](NC(=O)[C@](C)(Cc1ccccc1)NC(=O)[C@H](CO)NC(=O)CNC(=O)[C@H](Cc1c[nH]cn1)NC(=O)C(C)(C)NC(=O)[C@@H](N)Cc1c[nH]cn1)[C@@H](C)O)C(C)C)C(C)C)C(=O)N[C@@H](C)C(=O)N[C@@H](CC(N)=O)C(=O)N[C@H](C(N)=O)[C@@H](C)O
On to B5, for which the “cAMP production, hGLP-1R EC50 (pM)” value in the assay with human GLP-1 receptor worked out at 84.6 pM. In addition, the “cAMP production, hGluc-R EC50 (pM)” value with human glucagon receptor is 30.7 pM.

B6: Peptide 5 (peptide)
peptide: H[Aib]QGS[αMeF]TSDVSK[αMeF]LDSK([AEEA-AEEA-γGlu-γGlu-C18 diacid])AAQD[αMeF]VQ[Aib]IAN-NH2
modifications: N-terminus assumed
SMILES: CC[C@H](C)[C@H](NC(=O)C(C)(C)NC(=O)[C@H](CCC(N)=O)NC(=O)[C@@H](NC(=O)[C@](C)(Cc1ccccc1)NC(=O)[C@H](CC(=O)O)NC(=O)[C@H](CCC(N)=O)NC(=O)[C@H](C)NC(=O)[C@H](C)NC(=O)[C@H](CCCCNC(=O)COCCOCCNC(=O)COCCOCCNC(=O)CC[C@H](NC(=O)CC[C@H](NC(=O)CCCCCCCCCCCCCCCCC(=O)O)C(=O)O)C(=O)O)NC(=O)[C@H](CO)NC(=O)[C@H](CC(=O)O)NC(=O)[C@H](CC(C)C)NC(=O)[C@](C)(Cc1ccccc1)NC(=O)[C@H](CCCCN)NC(=O)[C@H](CO)NC(=O)[C@@H](NC(=O)[C@H](CC(=O)O)NC(=O)[C@H](CO)NC(=O)[C@@H](NC(=O)[C@](C)(Cc1ccccc1)NC(=O)[C@H](CO)NC(=O)CNC(=O)[C@H](CCC(N)=O)NC(=O)C(C)(C)NC(=O)[C@@H](N)Cc1c[nH]cn1)[C@@H](C)O)C(C)C)C(C)C)C(=O)N[C@@H](C)C(=O)N[C@@H](CC(N)=O)C(N)=O
Regarding B6, in the assay with human GLP-1 receptor, the “cAMP production, hGLP-1R EC50 (pM)” value is 283 pM. Moreover, the “cAMP production, hGluc-R EC50 (pM)” value with human glucagon receptor came to 7140 pM.

B7: Peptide 6 (peptide)
peptide: H[Aib]HGS[αMeF]TSDVSK[αMeF]LDSK([AEEA-AEEA-γGlu-C18 diacid])AAQD[αMeF]VEWIAN-NH2
modifications: N-terminus assumed
SMILES: CC[C@H](C)[C@H](NC(=O)[C@H](Cc1c[nH]c2ccccc12)NC(=O)[C@H](CCC(=O)O)NC(=O)[C@@H](NC(=O)[C@](C)(Cc1ccccc1)NC(=O)[C@H](CC(=O)O)NC(=O)[C@H](CCC(N)=O)NC(=O)[C@H](C)NC(=O)[C@H](C)NC(=O)[C@H](CCCCNC(=O)COCCOCCNC(=O)COCCOCCNC(=O)CC[C@H](NC(=O)CCCCCCCCCCCCCCCCC(=O)O)C(=O)O)NC(=O)[C@H](CO)NC(=O)[C@H](CC(=O)O)NC(=O)[C@H](CC(C)C)NC(=O)[C@](C)(Cc1ccccc1)NC(=O)[C@H](CCCCN)NC(=O)[C@H](CO)NC(=O)[C@@H](NC(=O)[C@H](CC(=O)O)NC(=O)[C@H](CO)NC(=O)[C@@H](NC(=O)[C@](C)(Cc1ccccc1)NC(=O)[C@H](CO)NC(=O)CNC(=O)[C@H](Cc1c[nH]cn1)NC(=O)C(C)(C)NC(=O)[C@@H](N)Cc1c[nH]cn1)[C@@H](C)O)C(C)C)C(C)C)C(=O)N[C@@H](C)C(=O)N[C@@H](CC(N)=O)C(N)=O
For B7, the “cAMP production, hGLP-1R EC50 (pM)” value in the assay with human GLP-1 receptor came out at 568 pM. The “cAMP production, hGluc-R EC50 (pM)” value with human glucagon receptor worked out at 516 pM.

The values are drawn from patent US12630600B2 (MEDIMMUNE LIMITED, priority 2022, dated 2026).
